Molecular target: T1, LAG-3 protein as used in the Biacore analysis (partner not given) (UniProt P18627 23-434, limits assumed)
T1 sequence (looked up): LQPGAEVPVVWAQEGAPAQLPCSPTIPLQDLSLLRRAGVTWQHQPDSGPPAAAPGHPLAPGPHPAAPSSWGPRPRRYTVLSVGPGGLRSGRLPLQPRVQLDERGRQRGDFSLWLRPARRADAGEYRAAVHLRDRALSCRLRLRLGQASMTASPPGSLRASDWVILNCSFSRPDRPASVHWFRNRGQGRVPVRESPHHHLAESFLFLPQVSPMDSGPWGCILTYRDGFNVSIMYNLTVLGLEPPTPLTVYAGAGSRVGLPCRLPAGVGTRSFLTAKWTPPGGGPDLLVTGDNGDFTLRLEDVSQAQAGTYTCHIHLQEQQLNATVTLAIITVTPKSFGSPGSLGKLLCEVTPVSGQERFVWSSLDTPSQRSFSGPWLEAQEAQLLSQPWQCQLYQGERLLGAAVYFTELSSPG
Experiment: Biacore (SPR)

B1: A9H12 (580.1E MM H12), murine IgG2a anti-human LAG-3 monoclonal antibody (antibody, V domains shown)
VH: QVQLKESGPGLVAPSQSLSITCTVSGFSLTAYGVNWVRQPPGKGLEWLGMIWDDGSTDYNSALKSRLSISKDNSKSQVFLKMNSLQTDDTARYYCAREGDVAFDYWGQGTTLTVSS
VL: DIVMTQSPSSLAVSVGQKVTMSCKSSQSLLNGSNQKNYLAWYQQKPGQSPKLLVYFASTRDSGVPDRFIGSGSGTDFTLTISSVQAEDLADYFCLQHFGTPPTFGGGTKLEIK
notes: Murine IgG2a from hybridoma; also called A9H12 LAG-3 mAb; hybridoma CNCM I-3755
- Kd: 0.829 nM
- koff: 0.00143 s⁻¹
- kon: 1.72e+06 M⁻¹ s⁻¹

B2: IMP731 (chimeric A9H12 with human IgG1 Fc region) (antibody, V domains shown)
VH: QVQLKESGPGLVAPSQSLSITCTVSGFSLTAYGVNWVRQPPGKGLEWLGMIWDDGSTDYNSALKSRLSISKDNSKSQVFLKMNSLQTDDTARYYCAREGDVAFDYWGQGTTLTVSS
VL: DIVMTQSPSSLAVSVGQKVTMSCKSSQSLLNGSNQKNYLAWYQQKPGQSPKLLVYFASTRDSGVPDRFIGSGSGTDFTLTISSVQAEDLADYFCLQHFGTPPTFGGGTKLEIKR
notes: also called ImmuTune IMP731; IMP371 [sic]
- Kd: 0.551 nM
- koff: 0.00112 s⁻¹
- kon: 2.03e+06 M⁻¹ s⁻¹
